Values of other authors in patent publication US7410776B2, “Polypeptides, their production and use” (Takeda Pharmaceutical Company Limited, priority 1997, dated 2008).

Biological target: T1, APJ (Homo sapiens, UniProt P35414)
T1 construct: host or cells: CHO cells
T1 sequence (P35414 1-380): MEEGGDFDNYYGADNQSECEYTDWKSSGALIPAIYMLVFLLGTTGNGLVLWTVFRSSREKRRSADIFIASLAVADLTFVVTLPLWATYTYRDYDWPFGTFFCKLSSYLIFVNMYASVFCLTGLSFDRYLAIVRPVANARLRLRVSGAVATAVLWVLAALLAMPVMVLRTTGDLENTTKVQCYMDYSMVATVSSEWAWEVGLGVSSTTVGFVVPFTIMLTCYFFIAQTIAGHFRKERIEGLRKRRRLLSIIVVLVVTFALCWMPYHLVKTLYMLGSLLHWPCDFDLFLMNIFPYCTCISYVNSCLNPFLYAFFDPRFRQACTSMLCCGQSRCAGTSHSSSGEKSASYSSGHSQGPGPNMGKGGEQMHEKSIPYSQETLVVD
Conditions: APJ expressed in CHO cells

## angiotensin II (DRVYIHPF; Angiotensin-2; UniProt P01019 25-32, looked up) [known peptide tested on APJ expressed in CHO cells]
  reaction with APJ: no reaction was detected at all
